Data set [1] concerns the molecule itself. In words: SDS-resistant dimer on SDS-PAGE; YohPHis expressed in vivo; whole cells or cell fractions (INV), Tricine-SDS-PAGE, western blot with anti-His antibodies. For orientation: Immunoblotting shows a protein as a band on a membrane.
Data set [2] deals with the molecule itself. In words: SDS-resistant dimer on SDS-PAGE; in vivo expression, 35S pulse-chase labelling with rifampicin; whole cells or fractions TCA precipitated, Tricine-SDS-PAGE, autoradiography.

B1: His-tagged YohP (YohPHis) (natural protein, E. coli, UniProt C1P609 1-27, looked up)
chain: MKIILWAVLIIFLIGLLVVTGVFKMIF
notes: YohP, small membrane protein of E. coli, 27 amino acids; also called YohP_(His6); source: E. coli, expressed in vivo from pBad24 (arabinose) or pET19b (IPTG); whole cells TCA precipitated or cell fractions (INV); not shown: His6, C-terminal, kept
By stoichiometry N is commonly meant a count of units in the complex or per binding partner. As to B1, the “stoichiometry N” value in data set [1] came out at 2.

B2: YohP (nontagged) (natural protein, E. coli, UniProt C1P609 1-27, looked up)
chain: MKIILWAVLIIFLIGLLVVTGVFKMIF
notes: YohP, small membrane protein of E. coli, 27 amino acids; also called nontagged YohP; source: E. coli C43(DE3) with pET19b-YohP, expressed in vivo, pulse-labelled with 35S methionine/cysteine; whole cells or cell fractions
As for B2, in data set [2], the “stoichiometry N” value came to 2.

For the origin of these results see paper PMC7549839, “Posttranslational insertion of small membrane proteins by the bacterial signal recognition particle” (PLoS Biology, 2020).
